According to the MegaScale stability set (Tsuboyama et al. 2023):

B1: EEHEE_rd4_0003 (parent)
chain: KKVTINGVEIKFNNPEEAVKFALELAKRLNLRIEFHGDQIKIE

Variants of: B1
Experiment: folding stability dG (cDNA display proteolysis); higher = more stable
Settings: PBS, room temperature

Folding stability dG [kJ/mol] of substitutions, site by site:
V19: F 11.5 | G 6.45 | H 9.24 | I 12.1 | K 9.73 | L 12.9 | M 12.3 | N 7.66 | P 4.34 | Q 8.6 | R 10.5 | S 7.77 | T 9.3 | W 12.5 | Y 11.9
K20: A 11 | C 15.8 | D 8.08 | E 9.54 | F 10.5 | G 7.39 | H 9.22 | I 9.95 | L 10.4 | M 10.2 | N 8.93 | P 7.05 | Q 10.2 | R 11.7 | S 9.36 | T 9.37 | V 9.21 | Y 10.3
F21: A 7.73 | C 13.3 | D 4.09 | E 5.65 | G 4.83 | H 6.35 | I 8.51 | K 6.94 | L 8.48 | M 7.88 | N 5.3 | P 2.11 | Q 6.57 | R 7.35 | S 6.15 | T 6.54 | V 7.26 | W 11.8 | Y 10.4
A22: C 11.7 | D 1.7 | E 4.1 | F 11.5 | G 6.61 | H 5.53 | I 13.4 | K 5.04 | L 12.5 | M 10.9 | N 3.39 | P 1.74 | Q 5.09 | R 4.85 | S 6.67 | T 8.38 | V 11.5 | W 11.2 | Y 10
L23: A 8 | C 13.3 | D 6.17 | E 8.87 | F 10.3 | G 5.97 | H 8.18 | I 10.7 | K 9.07 | M 10.6 | N 8.18 | P 0.0293 | Q 8.9 | R 9.18 | S 7.86 | T 9.59 | V 9.6 | W 9.84 | Y 10.2
E24: A 12 | C 17.5 | D 10.3 | F 10.8 | G 9.55 | H 9.35 | I 10.4 | K 10 | L 11.1 | M 11.4 | N 9.82 | P 6.14 | Q 10.8 | R 10.7 | S 10.4 | T 10.2 | V 9.82 | W 13.2 | Y 11.4
L25: A 7.97 | C 11.8 | D 1.85 | E 6.51 | F 10.2 | G 3.25 | H 6.2 | I 10.6 | K 4.1 | M 10.3 | N 5.51 | P -0.218 | Q 6.77 | R 4 | S 4.63 | T 7.1 | V 9.38 | W 10.6 | Y 11.4
A26: C 12.5 | D 4.11 | E 5.57 | F 10.7 | G 8 | H 6.17 | I 9.61 | K 6.96 | L 10.5 | M 9.91 | N 5.99 | P 4.98 | Q 7.46 | R 7.24 | S 9.35 | T 8.05 | V 9.47 | W 8.95 | Y 9.56
K27: A 11.4 | C 13.5 | D 8.49 | E 9.95 | F 11 | G 9.98 | H 10.4 | I 10 | L 11 | M 10.8 | N 9.72 | P 5.74 | Q 10.3 | R 11.7 | S 10.6 | T 10.5 | V 9.38 | W 10.3 | Y 10.2
R28: A 10
